Measurements published in the supplement of paper PMC10567573.

B1: SLC19A2 (parent)
chain: FHHIPSTCQRVNGIKVQNGGIVTD

Variants of: B1
Test: protein stability index of a GFP-peptide fusion (GPS, HEK-293T) (PSI 1-6); higher = more stable
Details: c terminus: a fixed tail appended
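Note: lentivirally expressed fusions sorted by FACS into six bins by GFP to DsRed ratio, PSI derived from sequencing read proportions per bin multiplied by bin number.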

Variant	protein stability index
FHHIPSTCQRENGIKVQNGGIVTD	2.08
FHHIPSTCQRANGIKVQNGGIVTD	2.25
FHHIPSTCQRGNGIKVQNGGIVTD	2.19
FHHIPSTCQGVNGIKVQNGGIVTD	2.23
FHHIPSTCQFVNGIKVQNGGIVTD	1.7
FHHIPSTCQEVNGIKVQNGGIVTD	2.46
FHHIPSTCQLVNGIKVQNGGIVTD	2.46
FHHIPSTCQTVNGIKVQNGGIVTD	1.99
FHHIPSTCQPVNGIKVQNGGIVTD	1.78
FHHIPSTCQRVNGIKVQNGIIVTD	1.9
FHHIPSTCQRVNGIKVQNGHIVTD	2.19
FHHIPSTCQRVNGIKVQNGVIVTD	1.5
FHHIPSTCQRVNGIKVQNGEIVTD	1.95
FHHIPSTCQRVNGIKVQNGQIVTD	1.8
FHHIPSTCQRVNGIKVQNGFIVTD	1.65
FHHIPSTCQRVNGCKVQNGGIVTD	1.72
FHHIPSTCQRVNGNKVQNGGIVTD	2.07
FHHIPSTCQRVNGPKVQNGGIVTD	2.19
FHHIPSTCQRVNGYKVQNGGIVTD	1.47
FHHIPSTCQRVNGSKVQNGGIVTD	2.62
FHHIPSTCQRVNGIKVQNGGIVTE	2.06
FHHIPSTCQRVNGIKVQNGGIVTS	2.12
FHHIPSTCQRVNGIKVQNGGIVTQ	1.94
FHHIPSTCQRVNGIKVQNGGIVTY	3.21

Variant	protein stability index
FHHIPSTCQRVNGIKVQGGGIVTD	3.96
FHHIPSTCQRVNGIKVQEGGIVTD	2.01
FHHIPSTCQRVNGIKVQLGGIVTD	1.28
FHHIPSTCQRVNGIKVQNGGIRTD	2.19
FHHIPSTCQRVNGIKVQNGGICTD	1.61
FHHIPSTCQRVNGIKVQNGGIMTD	1.52
FHHIPSTCQRVNGIKVQNGGIWTD	1.91
FHHIPSTCQRVNGIKVQNGGIATD	2.44
FHHIPSTCQRVNGIKVQNGGLVTD	1.61
FHHIPSTCQRVNGIKVQNGGQVTD	2.16
FHHIPSFCQRVNGIKVQNGGIVTD	3.29
FHHIPSMCQRVNGIKVQNGGIVTD	2.03
FHHIPSVCQRVNGIKVQNGGIVTD	2
FHHIPSYCQRVNGIKVQNGGIVTD	1.91
FHHIPSICQRVNGIKVQNGGIVTD	1.45
FHHIPSTCQRVNNIKVQNGGIVTD	2.01
FHHIPSTCQRVNRIKVQNGGIVTD	2.21
FHHIPSTCQRVNSIKVQNGGIVTD	1.97
FHHIPSTCQRVNKIKVQNGGIVTD	2.5
FHHIPSTCQRVNQIKVQNGGIVTD	2.73
FHHIPSTCQRVNYIKVQNGGIVTD	2.19
FHHIPSTCQRVNGIKFQNGGIVTD	1.6
FHHIPSTCQRVNGIKAQNGGIVTD	2.13
FHHIPSTCQRVNGIKKQNGGIVTD	2.02

Variant	protein stability index
FHHIPSTCQRVNGIKQQNGGIVTD	1.56
FHHIPSTCQRVNGIKPQNGGIVTD	2.14
FHHIPSTCQRVNGIKTQNGGIVTD	1.89
FHHIPSTCQRVNGIKLQNGGIVTD	1.79
FHHIPSTCQRVNGIKRQNGGIVTD	1.93
FHHIPSTCQRVNGIKYQNGGIVTD	1.95
FHHIPSTCQRVNGIKMQNGGIVTD	2.44
FHHIPSTCQRVNGIKVQNQGIVTD	2.16
FHHIPSTCQRVNGIKVQNWGIVTD	1.62
FHHIPSTCQRVNGIKVQNEGIVTD	2.81
FHHIPSTCQRVNGIKVQNDGIVTD	2.36
FHHIPSTCQRVNGIKVQNTGIVTD	2.78
FHHIPSTCQRVNGIKVQNKGIVTD	1.94
FHHIPSTEQRVNGIKVQNGGIVTD	2.18
FHHIPSTTQRVNGIKVQNGGIVTD	2.84
FHHIPSTAQRVNGIKVQNGGIVTD	2.36
FHHIPSTVQRVNGIKVQNGGIVTD	2.3
FHHIPSTYQRVNGIKVQNGGIVTD	1.86
FHHIPSTIQRVNGIKVQNGGIVTD	1.99
FHHIPSTPQRVNGIKVQNGGIVTD	1.94
FHHIPSTMQRVNGIKVQNGGIVTD	2.39
YHHIPSTCQRVNGIKVQNGGIVTD	2.5
VHHIPSTCQRVNGIKVQNGGIVTD	4.14
RHHIPSTCQRVNGIKVQNGGIVTD	3.64

Variant	protein stability index
AHHIPSTCQRVNGIKVQNGGIVTD	3.95
HHHIPSTCQRVNGIKVQNGGIVTD	3.53
QHHIPSTCQRVNGIKVQNGGIVTD	3.71
DHHIPSTCQRVNGIKVQNGGIVTD	4.42
FEHIPSTCQRVNGIKVQNGGIVTD	3.65
FDHIPSTCQRVNGIKVQNGGIVTD	3.31
FAHIPSTCQRVNGIKVQNGGIVTD	2.73
FFHIPSTCQRVNGIKVQNGGIVTD	2.03
FWHIPSTCQRVNGIKVQNGGIVTD	3
FHHIPSTCKRVNGIKVQNGGIVTD	1.55
FHHIPSTCHRVNGIKVQNGGIVTD	1.78
FHHIPSTCLRVNGIKVQNGGIVTD	2.92
FHHIPSTCSRVNGIKVQNGGIVTD	1.67
FHHIPSTCNRVNGIKVQNGGIVTD	2.08
FHHIPSTCCRVNGIKVQNGGIVTD	2.13
FHHIPSTCGRVNGIKVQNGGIVTD	1.68
FHTIPSTCQRVNGIKVQNGGIVTD	2.06
FHSIPSTCQRVNGIKVQNGGIVTD	1.33
FHDIPSTCQRVNGIKVQNGGIVTD	3
FHRIPSTCQRVNGIKVQNGGIVTD	2.53
FHGIPSTCQRVNGIKVQNGGIVTD	2.31
FHPIPSTCQRVNGIKVQNGGIVTD	2.03
